Substrate in the series: CC(=O)SCCNC(=O)CCNC(=O)[C@H](O)C(C)(C)COP(=O)(O)OP(=O)(O)OC[C@H]1O[C@@H](n2cnc3c(N)ncnc32)[C@H](O)[C@@H]1OP(=O)(O)O
Briefly: purified protein. Conditions: acyl-CoA site of the active site.

The Km is the concentration of substrate that gives half-maximal velocity.

B1: human Gcn5L2 (hsGcn5L2) (Homo sapiens) (protein)
chain: GIIEFHVIGNSLTPKANRRVLLWLVGLQNVFSHQLPRMPKEYIARLVFDPKHKTLALIKDGRVIGGICFRMFPTQGFTEIVFCAVTSNEQVKGYGTHLMNHLKEYHIKHNILYFLTYADEYAIGYFKKQGFSKDIKVPKSRYLGYIKDYEGATLMECELNPRIPYT
For the protein B1, the Km turned out to be 0.91 ± 0.09 µM.

For the origin of these results see publication PMC4932917, “Structural basis for acyl-group discrimination by human Gcn5L2” (Acta Crystallographica. Section D, Structural Biology, 2016).
